How the values were obtained:
[1] = target: T1, cynomolgus E11 protein (E11 domain of cynomolgus FcRH5), soluble (cynomolgus monkey); assay: SPR BIACORE T200, IgG capture, monovalent
T1 chain: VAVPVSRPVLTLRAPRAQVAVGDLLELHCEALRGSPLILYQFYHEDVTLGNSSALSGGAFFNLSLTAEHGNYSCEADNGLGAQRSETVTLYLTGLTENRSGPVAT

[2] = target: T2, human E11 protein (E11 domain of human FcRH5), soluble (human, UniProt Q96RD9 745-850); assay: SPR BIACORE T200, IgG capture, monovalent
T2 construct: Expressed in CHO cells; also called human E11 domain
T2 sequence: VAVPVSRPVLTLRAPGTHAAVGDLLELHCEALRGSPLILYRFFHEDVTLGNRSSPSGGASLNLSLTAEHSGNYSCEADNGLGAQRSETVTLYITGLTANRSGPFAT

B1: 15G8 (antibody, mouse IgG2a, V domains shown)
VH: EVQLQQSGPELVKPGASVKMSCKASGYTFTNYVIHWMKQKPGQGLEWIGYISPYNDYTKYNEKFEGKATLTSDKSSNTAYMELSSLTSEDSAVYYCARRDYYGSSDYWGQGTTLTVSS
VL: QIVLTQSPAIMSASPGEKVTMTCSASSSVDYMHWYQQKSGTSPKKWIYDTSKLASGVPARFSGSGSGTSYSLTIGSMEAEDAATYYCQQWSSNPPTFGGGTKLEIK
notes: Mouse mAb, Immunization Campaign C; expressed recombinantly as murine IgG2a for SPR; also called mAb 15G8
Kd [1]: 9.1 nM | Kd [2]: 0.5 nM

B2: 17B1 (antibody, mouse IgG2a, V domains shown)
VH: QVQLQQSGPELVRPGVSVKISCKGSGYTFTHYAMHWVKQSHTKSLEWIGMISSSSGNTNFNQKFMDKATMTVDKSSTTAYLELARLTFGDSAIYYCARWSYYALFDYWGQGTTVTVSS
VL: ENVLTQSPAIMSASPGEKVTMTCSADSSVDYIHWYQQKSNTSPKLWIYDTSKLASGVPGRFSGSGSGNSYSLTISSMEAEDFATYYCFQGSGYPLTFGSGTKLELK
notes: Mouse mAb, Immunization Campaign C; expressed recombinantly as murine IgG2a for SPR
Kd [1]: 27 nM | Kd [2]: 68 nM
